# According to the supplement of paper PMC9112550, “Optimization of the antimicrobial peptide Bac7 by deep mutational scanning” (BMC Biology, 2022):
# Test system: Escherichia coli TOP10
# Assay: shrunken log2 fold change of peptide-encoding DNA abundance (4.5 h post-induction vs induction); higher = less antimicrobial activity (less host growth inhibition)
# Details: time post-induction: 4.5 h; library: site-saturation at positions 5, 18, 19, 20
# 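Also: peptides expressed intracellularly from a pBAD plasmid library in pooled LB shake-flask culture, induced with 0.3% L-arabinose, DNA abundance read by NGS, three biological replicates, DESeq2 with apeglm shrinkage.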
row,Sequence,shrunken log2 fold change
1,RRIRDRPPRLPRPRPRPNLTPRP,-0.325
2,RRIRSRPPRLPRPRPRPMVGPRP,0.158
3,RRIRNRPPRLPRPRPRPGTKPRP,0.0372
4,RRIRFRPPRLPRPRPRPEHSPRP,-0.00202
5,RRIRTRPPRLPRPRPRPTMPPRP,-0.0706
6,RRIRGRPPRLPRPRPRPDAEPRP,3.37
7,RRIRFRPPRLPRPRPRPAKGPRP,0.141
8,RRIRMRPPRLPRPRPRPSRNPRP,0.476
9,RRIRDRPPRLPRPRPRPEIPPRP,-0.0405
10,RRIRCRPPRLPRPRPRPGPRPRP,0.713
11,RRIRLRPPRLPRPRPRPYCTPRP,1.26
12,RRIRNRPPRLPRPRPRPSHAPRP,-0.859
13,RRIRKRPPRLPRPRPRPTNRPRP,-0.0262
14,RRIRMRPPRLPRPRPRPDTGPRP,0.112
15,RRIRLRPPRLPRPRPRPDAVPRP,-0.199
16,RRIRARPPRLPRPRPRPCNHPRP,-0.177
17,RRIRARPPRLPRPRPRPKTPPRP,0.903
18,RRIRVRPPRLPRPRPRPSEVPRP,-0.138
19,RRIRQRPPRLPRPRPRPVRVPRP,0.686
20,RRIRMRPPRLPRPRPRPICHPRP,0.0206
21,RRIRYRPPRLPRPRPRPKPHPRP,-0.1
22,RRIRMRPPRLPRPRPRPGMVPRP,0.263
23,RRIRGRPPRLPRPRPRPWGWPRP,1.15
24,RRIRDRPPRLPRPRPRPFNCPRP,0.0412
25,RRIRGRPPRLPRPRPRPMQHPRP,1.24

row,Sequence,shrunken log2 fold change
1,RRIRNRPPRLPRPRPRPTCTPRP,-0.0629
2,RRIRCRPPRLPRPRPRPCDTPRP,-0.0925
3,RRIRARPPRLPRPRPRPEAQPRP,1.66
4,RRIRLRPPRLPRPRPRPIWYPRP,-0.645
5,RRIRHRPPRLPRPRPRPEAAPRP,0.83
6,RRIRIRPPRLPRPRPRPHPAPRP,-0.516
7,RRIRHRPPRLPRPRPRPFLCPRP,-0.172
8,RRIRKRPPRLPRPRPRPYCAPRP,-0.254
9,RRIRERPPRLPRPRPRPRELPRP,0.569
10,RRIRFRPPRLPRPRPRPEKQPRP,-0.0262
11,RRIRRRPPRLPRPRPRPIQCPRP,0.00305
12,RRIRDRPPRLPRPRPRPQIQPRP,-0.221
13,RRIRARPPRLPRPRPRPGYKPRP,-0.268
14,RRIRPRPPRLPRPRPRPLELPRP,0.0125
15,RRIRYRPPRLPRPRPRPASPPRP,-0.161
16,RRIRARPPRLPRPRPRPDHDPRP,0.592
17,RRIRGRPPRLPRPRPRPCRGPRP,-0.0404
18,RRIRYRPPRLPRPRPRPLMMPRP,-0.692
19,RRIRNRPPRLPRPRPRPWTFPRP,-0.0614
20,RRIRFRPPRLPRPRPRPFVAPRP,-0.0081
21,RRIRQRPPRLPRPRPRPWTNPRP,-0.00183
22,RRIRWRPPRLPRPRPRPEGHPRP,0.792
23,RRIRVRPPRLPRPRPRPDYCPRP,-0.207
24,RRIRDRPPRLPRPRPRPRDRPRP,0.13
25,RRIRGRPPRLPRPRPRPQVTPRP,0.0826

row,Sequence,shrunken log2 fold change
1,RRIRERPPRLPRPRPRPQQPPRP,0.166
2,RRIRSRPPRLPRPRPRPVYSPRP,-0.0582
3,RRIRTRPPRLPRPRPRPCTVPRP,-0.442
4,RRIRNRPPRLPRPRPRPRTPPRP,0.261
5,RRIRSRPPRLPRPRPRPFIDPRP,-0.0941
6,RRIRHRPPRLPRPRPRPYWVPRP,-0.26
7,RRIRSRPPRLPRPRPRPGAWPRP,0.342
8,RRIRFRPPRLPRPRPRPEFLPRP,0.0354
9,RRIRGRPPRLPRPRPRPNSEPRP,0.295
10,RRIRYRPPRLPRPRPRPQGQPRP,-0.262
11,RRIRTRPPRLPRPRPRPDREPRP,-0.0115
12,RRIRLRPPRLPRPRPRPRWCPRP,-0.0806
13,RRIRGRPPRLPRPRPRPFYKPRP,-0.0686
14,RRIRVRPPRLPRPRPRPLCIPRP,-0.499
15,RRIRERPPRLPRPRPRPFVFPRP,-0.379
16,RRIRRRPPRLPRPRPRPLMPPRP,0.297
17,RRIRQRPPRLPRPRPRPVAMPRP,0.0794
18,RRIRWRPPRLPRPRPRPYQYPRP,-0.0756
19,RRIRSRPPRLPRPRPRPRAYPRP,0.031
20,RRIRCRPPRLPRPRPRPGQFPRP,-0.564
21,RRIRDRPPRLPRPRPRPGQQPRP,-0.0114
22,RRIRSRPPRLPRPRPRPDMEPRP,0.0134
23,RRIRIRPPRLPRPRPRPEPHPRP,-0.0648
24,RRIRLRPPRLPRPRPRPHYDPRP,-0.0502
25,RRIRWRPPRLPRPRPRPNKPPRP,-0.0749

row,Sequence,shrunken log2 fold change
1,RRIRCRPPRLPRPRPRPWCVPRP,-0.0995
2,RRIRLRPPRLPRPRPRPFQVPRP,-0.0146
3,RRIRLRPPRLPRPRPRPKDFPRP,0.0642
4,RRIRGRPPRLPRPRPRPKTQPRP,0.929
5,RRIRRRPPRLPRPRPRPRYHPRP,0.14
6,RRIRVRPPRLPRPRPRPAKPPRP,0.296
7,RRIRLRPPRLPRPRPRPHYAPRP,-0.133
8,RRIRPRPPRLPRPRPRPVGYPRP,0.394
9,RRIRRRPPRLPRPRPRPAAEPRP,0.845
10,RRIRIRPPRLPRPRPRPWHTPRP,-0.113
11,RRIRYRPPRLPRPRPRPDFEPRP,-0.0141
12,RRIRARPPRLPRPRPRPASCPRP,0.295
13,RRIRERPPRLPRPRPRPNNEPRP,-0.525
14,RRIRQRPPRLPRPRPRPGCCPRP,0.202
15,RRIRDRPPRLPRPRPRPTMIPRP,-0.587
16,RRIRTRPPRLPRPRPRPTHHPRP,-0.0136
17,RRIRLRPPRLPRPRPRPEWDPRP,0.273
18,RRIRSRPPRLPRPRPRPLGIPRP,-0.036
19,RRIRTRPPRLPRPRPRPRGMPRP,0.24
20,RRIRDRPPRLPRPRPRPSYQPRP,-0.494
21,RRIRFRPPRLPRPRPRPAENPRP,-0.134
22,RRIRNRPPRLPRPRPRPDEYPRP,0.00318
23,RRIRLRPPRLPRPRPRPAYFPRP,-0.364
24,RRIRTRPPRLPRPRPRPFALPRP,-0.0597
25,RRIRCRPPRLPRPRPRPCFGPRP,-0.137

row,Sequence,shrunken log2 fold change
1,RRIRARPPRLPRPRPRPRWWPRP,0.199
2,RRIRHRPPRLPRPRPRPPYYPRP,-0.296
3,RRIRIRPPRLPRPRPRPPEVPRP,-0.173
4,RRIRPRPPRLPRPRPRPCTFPRP,-0.00278
5,RRIRDRPPRLPRPRPRPPYWPRP,0.246
6,RRIRARPPRLPRPRPRPMHPPRP,0.362
7,RRIRCRPPRLPRPRPRPHKIPRP,-0.217
8,RRIRLRPPRLPRPRPRPSKPPRP,-0.0779
9,RRIRSRPPRLPRPRPRPMDWPRP,-0.0477
10,RRIRARPPRLPRPRPRPVFCPRP,0.487
11,RRIRRRPPRLPRPRPRPVECPRP,-0.0238
12,RRIRARPPRLPRPRPRPKASPRP,0.256
13,RRIRMRPPRLPRPRPRPFVWPRP,0.246
14,RRIRTRPPRLPRPRPRPQPQPRP,0.222
15,RRIRTRPPRLPRPRPRPWHVPRP,0.0162
16,RRIRPRPPRLPRPRPRPWLYPRP,-0.0765
17,RRIRQRPPRLPRPRPRPACQPRP,0.15
18,RRIRSRPPRLPRPRPRPCLYPRP,-0.198
19,RRIRIRPPRLPRPRPRPDSCPRP,-0.972
20,RRIRGRPPRLPRPRPRPWVVPRP,0.273
21,RRIRYRPPRLPRPRPRPKWNPRP,-0.483
22,RRIRSRPPRLPRPRPRPAQFPRP,-0.114
23,RRIRVRPPRLPRPRPRPGFIPRP,-0.202
24,RRIRLRPPRLPRPRPRPQFLPRP,-0.0896
25,RRIRGRPPRLPRPRPRPMWTPRP,0.311

row,Sequence,shrunken log2 fold change
1,RRIRKRPPRLPRPRPRPVECPRP,0.22
2,RRIRMRPPRLPRPRPRPINPPRP,-0.0782
3,RRIRNRPPRLPRPRPRPFPTPRP,0.00541
4,RRIRYRPPRLPRPRPRPFNSPRP,-0.169
5,RRIRWRPPRLPRPRPRPTNHPRP,-0.245
6,RRIRHRPPRLPRPRPRPDRFPRP,-0.00476
7,RRIRMRPPRLPRPRPRPGWRPRP,1.15
8,RRIRQRPPRLPRPRPRPSFRPRP,-0.578
9,RRIRSRPPRLPRPRPRPKTSPRP,0.187
10,RRIRSRPPRLPRPRPRPRIEPRP,0.753
11,RRIRCRPPRLPRPRPRPNACPRP,-0.0874
12,RRIRWRPPRLPRPRPRPNMWPRP,0.0493
13,RRIRGRPPRLPRPRPRPVGWPRP,1.26
14,RRIRIRPPRLPRPRPRPRYQPRP,0.00748
15,RRIRTRPPRLPRPRPRPMACPRP,0.0855
16,RRIRPRPPRLPRPRPRPGDYPRP,-0.0215
17,RRIRPRPPRLPRPRPRPVIMPRP,-0.634
18,RRIRERPPRLPRPRPRPRNSPRP,-0.639
19,RRIRQRPPRLPRPRPRPPNQPRP,0.448
20,RRIRERPPRLPRPRPRPGIWPRP,0.139
21,RRIRIRPPRLPRPRPRPCVYPRP,-0.227
22,RRIRSRPPRLPRPRPRPLLKPRP,0.253
23,RRIRHRPPRLPRPRPRPLVEPRP,-0.0289
24,RRIRHRPPRLPRPRPRPVCVPRP,-0.216
25,RRIRSRPPRLPRPRPRPQYVPRP,-0.22
